Where two headings read alike, the source gives them in different places.
How the values were obtained:
[1] = cited from earlier work
A. fumigatus = test: sDectin-2 liposome and DEC2-Rhod binding to A. fumigatus; parameters: species or system Aspergillus fumigatus
Description: C. albicans CAI4 expressing GFP under control of the ADH1 promoter, A. fumigatus A1163, and wild type C. neoformans H99-alpha were grown in Vogel's Minimal Media (VMM)+1% glucose (85)+0.5% BSA or RPMI 1640 media with no red indicator dye (ThermoFisher SKU— 11835-030)+0.5% BSA or YPD (1% yeast extract, 2% peptone, 2% dextrose) in liquid with shaking or on 24 or 96 well polystyrene microtiter plates or on glass microscope chamber slides and incubated at 37° C. for 3 to 36 hr. Plates were pre-coated with poly-L-lysine for A. fumigatus and glass microscope slides were pre-coated with […]. All fungal cell growth was carried out in a BSL2 laboratory. […]
Formalin fixed fungal cells were incubated with liposomes at 23° C. in liposome dilution buffer LDB2 (20 mM HEPES, 10 mM Triethoanolamine, 150 mM NaCl, 10 mM CaCl2, 1 mM beta-mercaptoethanol (BME), 5% BSA pH 8.0), wherein the BME was added fresh. […] The area of liposome binding at 20× magnification was quantified by taking an 8-bit grey-scale copy of the unmodified red fluorescent TIF image into Image J (imagej.nih.gov/ij), using Image>Adjust>Threshold>Apply to capture just the red fluorescent areas illuminated by liposomes, and using Analyze>Measure to place the area data for each image in a file. Six to ten photographic images were generally analyzed and averaged for most area estimates. […]

[2] = cited from earlier work; remark: listed apart in the source

sDectin-1: soluble extracellular C-terminal beta glucan binding domain of Dectin-1 (CLEC7A)
EC50 ([1]; read-out: EC50s for binding various beta-glucans, strong end of range): ≥ 2.2e-09 mM
EC50 ([1]; read-out: EC50s for binding various beta-glucans, weak end of range): ≤ 2 mM
Kd ([1]; read-out: Kd affinity constants for various beta-glucans, strong end of range): ≥ 2.2e-09 mM
Kd ([1]; read-out: Kd affinity constants for various beta-glucans, weak end of range): ≤ 2.6 mM

B1: DEC2-Rhod: Rhodamine labeled sDectin-2 protein (conjugate, UniProt Q6EIG7 42-209, looked up)
extracellular domain: TYHFTYGETGKRLSELHSYHSSLTCFSEGTKVPAWGCCPASWKSFGSSCYFISSEEKVWSKSEQNCVEMGAHLVVFNTEAEQNFIVQQLNESFSYFLGLSDPQGNNNWQWIDKTPYEKNVRFWHLGEPNHSAEQCASIVFWKPTGWGWNDVICETRRNSICEMNKIYL
modifications: extracellular domain rhodamine label
notes: Rhodamine labeled sDectin-2 protein
binding to A. fumigatus cell wall (A. fumigatus): did not stain the cell wall
binding to exopolysaccharide matrix of A. fumigatus (A. fumigatus; 1 hr, 1:200 dilution): bound strongly to most of the exopolysaccharide matrix surrounding A. fumigatus hyphal cells

B2: sDectin-2: soluble mannan-recognition domain of Dectin-2 (CLEC6A) (protein, UniProt Q6EIG7 42-209, looked up)
extracellular domain: B1 extracellular domain
modifications: extracellular domain
EC50 ([2]; read-out: Effective Concentration for 50% of binding (EC50), mannan-a-1-2-mannan): ~2 mM
EC50 ([2]; read-out: Effective Concentration for 50% of binding (EC50), mannoglycan): ~0.15 mM
EC50 ([2]; read-out: Effective Concentration for 50% of binding (EC50), mannose): ~20 mM
